# Where a chain is given by its changes, count along the chain named.
# B1: CL-2C mAb 1 (antibody, V domains shown)
# VH: QVQLVQSGAEVMKPGSSVKVSCKASGYTFSWYWLEWVRQAPGHGLEWMGEIDPGTFTTHYNEKFKARVTFTADTSTSTAYMELSSLRSEDTAVYYCARFSHFSGSHYDYFDYWGQGTLVTVSS
# VL: EIVMTQSPATLSVSPGERATLSCRASQHIGTNIHWYQQKPGQAPRLLIYYASESISGIPARFSGSGSGTEFTLTISSLQSEDFAVYYCQQSWSHPTTFGGGTKVEIK
# notes: also called CL-20 mAb 1; VK28H94H + VH58H100BH
# B2: CL-2C mAb 18 (antibody, V domains shown)
# VH: B1 VH with W33H, H59N
# VL: B1 VL with H28S, Y50H, W92D
# notes: also called VK50H92D94H + VH33H100BH
# B3: CL-2C mAb 11 (antibody, V domains shown)
# VH: B1 VH
# VL: B1 VL with H28S, Y50H
# notes: also called VK50H94H + VH58H100BH
# B4: CL-2C mAb 20 (antibody, V domains shown)
# VH: B1 VH with H59N, H106N
# VL: B1 VL with H28S, Y50H, W92D
# notes: also called VK50H92D94H + VHWT
# B5: CL-2C mAb 8 (antibody, V domains shown)
# VH: B1 VH with W33H, H59N
# VL: B1 VL with H28S, Y50H, Q89H, W92D, H94W
# notes: also called VK50H92D89H + VH33H100BH
# B6: CL-2C mAb 9 (antibody, V domains shown)
# VH: B1 VH with W33H, H59N, S105H, H106N
# VL: B1 VL with H28S, Y50H, Q89H, W92D, H94W
# notes: also called VK50H92D89H + VH33H100AH
# B7: CL-2C mAb 26 (antibody, V domains shown)
# VH: B1 VH
# VL: B1 VL with H28S, Y50H, H94W
# notes: also called VK50H + VH58H100BH
# B8: CL-2C mAb 39 (antibody, V domains shown)
# VH: B1 VH with W33H, H59N, S105H, H106N
# VL: B1 VL with H28S, H94W
# notes: also called VKWT + VH33H100AH
# B9: CL-2C mAb 13 (antibody, V domains shown)
# VH: B1 VH with W33H, H59N
# VL: B1 VL with H28S, Y50H
# notes: also called VK50H94H + VH33H100BH
# B10: CL-2C mAb 12 (antibody, V domains shown)
# VH: B1 VH with W33H, H59N, H106N, Y107H
# VL: B1 VL with H28S, Y50H
# notes: also called VK50H94H + VH33H100CH
# B11: CL-2C mAb 4 (antibody, V domains shown)
# VH: B1 VH with W33H, H59N, S105H, H106N
# VL: B1 VL
# notes: also called VK28H94H + VH33H100AH
# B12: CL-2C mAb 30 (antibody, V domains shown)
# VH: B1 VH with H59N, H106N
# VL: B1 VL with H28S, Y50H, H94W
# notes: also called VK50H + VHWT
# B13: CL-2C mAb 7 (antibody, V domains shown)
# VH: B1 VH with W33H, H59N, H106N, Y107H
# VL: B1 VL with H28S, Y50H, Q89H, W92D, H94W
# notes: also called VK50H92D89H + VH33H100CH
# B14: CL-2C mAb 35 (antibody, V domains shown)
# VH: B1 VH with H59N, H106N
# VL: B1 VL with H28S
# notes: also called VK94H + VHWT
# B15: CL-2C mAb 40 (antibody, V domains shown)
# VH: B1 VH with H59N, H106N
# VL: B1 VL with H28S, H94W
# notes: also called VKWT + VHWT
# B16: CL-2C mAb 31 (antibody, V domains shown)
# VH: B1 VH
# VL: B1 VL with H28S
# notes: also called VK94H + VH58H100BH
# B17: CL-2C mAb 32 (antibody, V domains shown)
# VH: B1 VH with W33H, H59N, H106N, Y107H
# VL: B1 VL with H28S
# notes: also called VK94H + VH33H100CH
# B18: CL-2C mAb 19 (antibody, V domains shown)
# VH: B1 VH with W33H, H59N, S105H, H106N
# VL: B1 VL with H28S, Y50H, W92D
# notes: also called VK50H92D94H + VH33H100AH
# B19: CL-2C mAb 28 (antibody, V domains shown)
# VH: B1 VH with W33H, H59N
# VL: B1 VL with H28S, Y50H, H94W
# notes: also called VK50H + VH33H100BH
# B20: CL-2C mAb 29 (antibody, V domains shown)
# VH: B1 VH with W33H, H59N, S105H, H106N
# VL: B1 VL with H28S, Y50H, H94W
# notes: also called VK50H + VH33H100AH
# B21: CL-2C mAb 6 (antibody, V domains shown)
# VH: B1 VH
# VL: B1 VL with H28S, Y50H, Q89H, W92D, H94W
# notes: also called VK50H92D89H + VH58H100BH
# B22: CL-2C mAb 16 (antibody, V domains shown)
# VH: B1 VH
# VL: B1 VL with H28S, Y50H, W92D
# notes: also called VK50H92D94H + VH58H100BH
# B23: CL-2C mAb 34 (antibody, V domains shown)
# VH: B1 VH with W33H, H59N, S105H, H106N
# VL: B1 VL with H28S
# notes: also called VK94H + VH33H100AH
# B24: CL-2C mAb 36 (antibody, V domains shown)
# VH: B1 VH
# VL: B1 VL with H28S, H94W
# notes: also called VKWT + VH58H100BH
# B25: CL-2C mAb 15 (antibody, V domains shown)
# VH: B1 VH with H59N, H106N
# VL: B1 VL with H28S, Y50H
# notes: also called VK50H94H + VHWT
# B26: CL-2C mAb 10 (antibody, V domains shown)
# VH: B1 VH with H59N, H106N
# VL: B1 VL with H28S, Y50H, Q89H, W92D, H94W
# notes: also called VK50H92D89H + VHWT
# B27: CL-2C mAb 2 (antibody, V domains shown)
# VH: B1 VH with W33H, H59N, H106N, Y107H
# VL: B1 VL
# notes: also called CL-20 mAb 2; VK28H94H + VH33H100CH
# B28: CL-2C mAb 5 (antibody, V domains shown)
# VH: B1 VH with H59N, H106N
# VL: B1 VL
# notes: also called VK28H94H + VHWT
# B29: CL-2C mAb 27 (antibody, V domains shown)
# VH: B1 VH with W33H, H59N, H106N, Y107H
# VL: B1 VL with H28S, Y50H, H94W
# notes: also called VK50H + VH33H100CH
# B30: CL-2C mAb 38 (antibody, V domains shown)
# VH: B1 VH with W33H, H59N
# VL: B1 VL with H28S, H94W
# notes: also called VKWT + VH33H100BH
# B31: CL-2C mAb 17 (antibody, V domains shown)
# VH: B1 VH with W33H, H59N, H106N, Y107H
# VL: B1 VL with H28S, Y50H, W92D
# notes: also called VK50H92D94H + VH33H100CH
# B32: CL-2C mAb 14 (antibody, V domains shown)
# VH: B1 VH with W33H, H59N, S105H, H106N
# VL: B1 VL with H28S, Y50H
# notes: also called VK50H94H + VH33H100AH
# B33: CL-2C mAb 3 (antibody, V domains shown)
# VH: B1 VH with W33H, H59N
# VL: B1 VL
# notes: also called VK28H94H + VH33H100BH
# B34: CL-2C mAb 33 (antibody, V domains shown)
# VH: B1 VH with W33H, H59N
# VL: B1 VL with H28S
# notes: also called VK94H + VH33H100BH
# B35: Oma VH15W100b - VL3D28H (antibody, V domains shown)
# VH: EVQLVESGGGLVQPGGSLRLSCAVSGYSITSGHRWEWIRQAPGKGLEWVASIHYDGSTNYNPSVKGRITISRDDSKNTFYLQMNSLRAEDTAVYYCARATHYFGHHHFAVWGQGTLVTVSS
# VL: DIQLTQSPSSLSASVGDRVTITCRASQSVDYHGDSYMNWYQQKPGKAPKLLIEWGSYLRSGVPSRFSGSGSGTDFTLTISSLQPEDFATYYCQQNAEDPYTFGQGTKVEIK
# notes: also called Oma VH15W100b VL3D25H
# B36: OmaVH15G55HW100b - VL3S31H (antibody, V domains shown)
# VH: B35 VH with G56H
# VL: B35 VL with H32D, S35H
# B37: Oma VH15W100b - VL3D28HS31H (antibody, V domains shown)
# VH: B35 VH
# VL: B35 VL with S35H
# B38: OmaVH15G55HW100b - VL3D28HS31H (antibody, V domains shown)
# VH: B35 VH with G56H
# VL: B35 VL with S35H
# notes: human IgG1
# B39: Oma VH15W100b - VL3S31H (antibody, V domains shown)
# VH: B35 VH
# VL: B35 VL with H32D, S35H
# What was measured:
# [1] = target: T1, human immunoglobulin E (hIgE) (human, UniProt P01854-1 1-428); experiment: SPR (Biacore) on hIgE
# T1 construct: also called human IgE; Native IgE (Abcam)
# T1 sequence (P01854 whole entry): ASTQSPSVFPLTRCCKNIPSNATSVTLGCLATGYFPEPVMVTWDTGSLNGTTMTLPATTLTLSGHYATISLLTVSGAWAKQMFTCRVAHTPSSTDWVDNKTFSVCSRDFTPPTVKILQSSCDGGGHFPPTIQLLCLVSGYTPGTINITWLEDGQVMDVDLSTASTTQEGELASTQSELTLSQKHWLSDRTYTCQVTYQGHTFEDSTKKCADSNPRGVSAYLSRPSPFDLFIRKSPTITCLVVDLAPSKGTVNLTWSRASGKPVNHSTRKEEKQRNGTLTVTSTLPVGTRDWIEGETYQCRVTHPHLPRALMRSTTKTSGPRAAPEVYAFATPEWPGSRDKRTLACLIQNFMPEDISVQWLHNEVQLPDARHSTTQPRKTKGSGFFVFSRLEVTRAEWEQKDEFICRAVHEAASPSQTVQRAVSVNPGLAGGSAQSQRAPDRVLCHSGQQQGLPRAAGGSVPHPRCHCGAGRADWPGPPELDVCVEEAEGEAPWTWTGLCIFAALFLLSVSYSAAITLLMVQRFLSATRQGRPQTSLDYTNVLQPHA
# Protocol: The ratio of KD measured at pH 5.5 versus KD measured at pH 7.4 was calculated for each of the CL-2C antibodies.
# [2] = target: T1, human immunoglobulin E (hIgE); experiment: SPR (Biacore)
# [3] = target: T1, human immunoglobulin E (hIgE); experiment: SPR (Biacore), pH 6.0
# [4] = target: T1, human immunoglobulin E (hIgE); experiment: SPR (Biacore), pH 7.4
# [5] = target: T2, recombinant Motavizumab human IgE (rMota-hIgE) (human, UniProt P01854 1-428); experiment: hIgE binding ELISA, pH 7.4
# T2 construct: also called Recombinant IgE (argenx)
# T2 sequence (P01854 other isoform, or with tags, fused parts or gaps limits assumed, form in doubt): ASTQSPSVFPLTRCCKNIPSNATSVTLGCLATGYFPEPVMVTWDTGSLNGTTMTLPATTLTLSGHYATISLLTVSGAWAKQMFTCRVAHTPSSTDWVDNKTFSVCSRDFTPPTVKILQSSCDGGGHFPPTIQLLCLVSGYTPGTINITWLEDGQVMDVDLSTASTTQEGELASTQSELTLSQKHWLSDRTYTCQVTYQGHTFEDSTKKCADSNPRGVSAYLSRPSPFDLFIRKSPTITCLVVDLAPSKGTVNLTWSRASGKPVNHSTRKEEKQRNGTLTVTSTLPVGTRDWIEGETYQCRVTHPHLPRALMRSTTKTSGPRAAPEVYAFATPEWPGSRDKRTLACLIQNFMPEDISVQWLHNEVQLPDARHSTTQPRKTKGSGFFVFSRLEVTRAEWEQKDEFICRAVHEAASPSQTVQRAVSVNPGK
# Protocol: Briefly a Maxisorp plate was coated with recombinant human respiratory syncytial virus protein F (RSV-F) (0.5 μg/mL), then blocked with PBS with 3% BSA and 0.05% Tween. […] After several washing steps at pH 7.4 or pH 5.5, detection of the bound mAbs was carried out with an anti-human Fc-HRP antibody.
# [6] = target: T1, human immunoglobulin E (hIgE); experiment: competition ELISA, hIgE to hFcεRIα
binder,measurement,setting,value
B1,KD Ratio pH 5.5/pH 7.4,[1],4.6
B2,KD Ratio pH 5.5/pH 7.4,[1],0.2
B3,KD Ratio pH 5.5/pH 7.4,[1],6
B4,KD Ratio pH 5.5/pH 7.4,[1],1.1
B5,KD Ratio pH 5.5/pH 7.4,[1],2.8
B6,KD Ratio pH 5.5/pH 7.4,[1],2.5
B7,KD Ratio pH 5.5/pH 7.4,[1],8.9
B8,KD Ratio pH 5.5/pH 7.4,[1],4.6
B9,KD Ratio pH 5.5/pH 7.4,[1],17.3
B10,KD Ratio pH 5.5/pH 7.4,[1],3.9
B11,KD Ratio pH 5.5/pH 7.4,[1],3.3
B12,KD Ratio pH 5.5/pH 7.4,[1],1
B13,KD Ratio pH 5.5/pH 7.4,[1],7.9
B14,KD Ratio pH 5.5/pH 7.4,[1],0.6
B15,KD Ratio pH 5.5/pH 7.4,[1],0.6
B16,KD Ratio pH 5.5/pH 7.4,[1],5.5
B17,KD Ratio pH 5.5/pH 7.4,[1],6.2
B18,KD Ratio pH 5.5/pH 7.4,[1],5.2
B19,KD Ratio pH 5.5/pH 7.4,[1],9
B20,KD Ratio pH 5.5/pH 7.4,[1],3.8
B21,KD Ratio pH 5.5/pH 7.4,[1],6.1
B22,KD Ratio pH 5.5/pH 7.4,[1],4.7
B23,KD Ratio pH 5.5/pH 7.4,[1],3
B24,KD Ratio pH 5.5/pH 7.4,[1],4.3
B25,KD Ratio pH 5.5/pH 7.4,[1],1.1
B26,KD Ratio pH 5.5/pH 7.4,[1],0.7
B27,KD Ratio pH 5.5/pH 7.4,[1],8.5
B28,KD Ratio pH 5.5/pH 7.4,[1],0.3
B29,KD Ratio pH 5.5/pH 7.4,[1],7.4
B30,KD Ratio pH 5.5/pH 7.4,[1],6.5
B31,KD Ratio pH 5.5/pH 7.4,[1],7.1
B32,KD Ratio pH 5.5/pH 7.4,[1],3.2
B33,KD Ratio pH 5.5/pH 7.4,[1],8.4
B34,KD Ratio pH 5.5/pH 7.4,[1],7
B35,Ratio pH 7.4/pH6.0 (of KD),[2],7.5
same,Kd,[3],64.5 nM
same,koff,[3],0.0148 s⁻¹
same,kon,[3],232000 M⁻¹ s⁻¹
same,Kd,[4],8.59 nM
same,koff,[4],0.00182 s⁻¹
same,kon,[4],213000 M⁻¹ s⁻¹
same,EC50,[5],0.015 µg/mL
same,IC50,[6],35 nM
B36,Ratio pH 7.4/pH6.0 (of KD),[2],20.3
same,Kd,[3],312 nM
same,koff,[3],0.0986 s⁻¹
same,kon,[3],243000 M⁻¹ s⁻¹
same,Kd,[4],15.4 nM
same,koff,[4],0.00391 s⁻¹
same,kon,[4],253000 M⁻¹ s⁻¹
same,EC50,[5],0.0191 µg/mL
same,IC50,[6],446 nM
B37,Ratio pH 7.4/pH6.0 (of KD),[2],23.5
same,Kd,[3],206 nM
same,koff,[3],0.0895 s⁻¹
same,kon,[3],453000 M⁻¹ s⁻¹
same,Kd,[4],8.78 nM
same,koff,[4],0.00251 s⁻¹
same,kon,[4],290000 M⁻¹ s⁻¹
same,EC50,[5],0.0156 µg/mL
same,IC50,[6],585 nM
B38,koff,[4],0.00356 s⁻¹
same,IC50,[6],9.49 nM
B39,Ratio pH 7.4/pH6.0 (of KD),[2],31.1
same,Kd,[3],190 nM
same,koff,[3],0.0375 s⁻¹
same,kon,[3],206000 M⁻¹ s⁻¹
same,Kd,[4],6.12 nM
same,koff,[4],0.00244 s⁻¹
same,kon,[4],398000 M⁻¹ s⁻¹
same,EC50,[5],0.0152 µg/mL
